No end group written: not given here.
What was measured:
Thrombin = biological target: T1, Thrombin (Homo sapiens, UniProt P00734); assay: 30-mer library counter-screening MSP-MS, Thrombin; format: biochemical
T1 construct: purchased R&D Systems (Bio-techne) 2196-SE-200
Description: (§1) Protease specificity screening was performed using Multiplexed Substrate Profiling by Mass Spectrometry (MSP-MS), the method described in, e.g. O'Donoghue A. J. et al., Nat Methods., 2012; 9(11): 1095-1100. This method employs a physico-chemically diverse peptide library as substrates for proteases, and reactions are monitored over time with mass spectrometric detection of cleaved products. The resulting cleavages are assessed for specific cleavage in the enzyme-treated sample by comparison with results from a no-enzyme control incubation.
(§2) Enzymes were activated and assayed following the manufacturer's recommendations.
Thrombin was activated following the manufacturer's recommended conditions by pre-incubation with the enzyme with thermolysin for 15 min, and then the thermolysin was quenched with 1,10 phenanthroline treatment. Activated thrombin was assayed at 1.2 nM in activation buffer: 50 mM TRIS HCl, 10 mM CaCl2, 150 mM NaCl, 0.05% (w/v) Brij-35, pH 7.5.
(§3) Counter-screening was performed against the enzymes Thrombin, Factor Xa and Hepsin using this library as well, and for calibration of activity, a positive-control peptide bearing favorable motifs for these enzymes was also designed (ALU30-19).
(§4) Catalytic efficiency (kcat/KM) estimations were used to rank the top cleaved substrates in the MSP-MS reaction. Peptides were quantified by mass spectrometric label-free quantitation from the MS1 precursor ion peak areas for each peptide. Enzyme progress curves were modeled from six-time point measurements in GraphPad Prism. Data were fitted using non-linear least squares fitting to the first order kinetics equation:
(§5) [formula] where Y=percent product formation or substrate consumption, and t=time. The observed rate is a function of the enzyme concentration [E0], and an observed catalytic efficiency (kcat/KM) in units M^−1s^−1
(§6) Counter-screening with Thrombin, Factor Xa and Hepsin was also performed following the same analysis. The library peptide Alu30-19 was designed to include authentic sites for each enzyme, for comparison of overall cleavage efficiency as well as cleavage site specificity within each motif. The substrate designed for Factor Xa has the motif FNPR|TFGS (SEQ ID NO: 248), derived from the Factor Xa cleavage site in Thrombin. The substrate motif for Thrombin was FPR|, a common tool substrate motif. The substrate motif for hepsin was RKRR|GSRG (SEQ ID NO: 249) from filaggrin.

Hepsin = biological target: T2, Hepsin (Homo sapiens, UniProt P05981); assay: 30-mer library counter-screening MSP-MS, Hepsin; format: biochemical; details: for Apparent catalytic efficiency, hepsin: order of magnitude
T2 construct: purchased R&D Systems (Bio-techne) 4776-SE
Description: as §1, §2
Hepsin was pre-activated overnight at 37° C. in the manufacturer recommended buffer: 100 mM TRIS, 10 mM CaCl2, 150 mM NaCl, 0.05% Brij-35, pH 8.0. Activity was measured with 2.4 or 24 nM enzyme in the buffer: 50 mM TRIS HCl at pH 7.4.
as §3, §4, §5, §6

FAPα = biological target: T3, FAPα (Homo sapiens, UniProt Q12884); assay: 30-mer tandem linker library MSP-MS, FAPα; format: biochemical
T3 construct: purchased R&D Systems (Bio-techne) 930-ADB-010
T3 sequence (Q12884 1-760): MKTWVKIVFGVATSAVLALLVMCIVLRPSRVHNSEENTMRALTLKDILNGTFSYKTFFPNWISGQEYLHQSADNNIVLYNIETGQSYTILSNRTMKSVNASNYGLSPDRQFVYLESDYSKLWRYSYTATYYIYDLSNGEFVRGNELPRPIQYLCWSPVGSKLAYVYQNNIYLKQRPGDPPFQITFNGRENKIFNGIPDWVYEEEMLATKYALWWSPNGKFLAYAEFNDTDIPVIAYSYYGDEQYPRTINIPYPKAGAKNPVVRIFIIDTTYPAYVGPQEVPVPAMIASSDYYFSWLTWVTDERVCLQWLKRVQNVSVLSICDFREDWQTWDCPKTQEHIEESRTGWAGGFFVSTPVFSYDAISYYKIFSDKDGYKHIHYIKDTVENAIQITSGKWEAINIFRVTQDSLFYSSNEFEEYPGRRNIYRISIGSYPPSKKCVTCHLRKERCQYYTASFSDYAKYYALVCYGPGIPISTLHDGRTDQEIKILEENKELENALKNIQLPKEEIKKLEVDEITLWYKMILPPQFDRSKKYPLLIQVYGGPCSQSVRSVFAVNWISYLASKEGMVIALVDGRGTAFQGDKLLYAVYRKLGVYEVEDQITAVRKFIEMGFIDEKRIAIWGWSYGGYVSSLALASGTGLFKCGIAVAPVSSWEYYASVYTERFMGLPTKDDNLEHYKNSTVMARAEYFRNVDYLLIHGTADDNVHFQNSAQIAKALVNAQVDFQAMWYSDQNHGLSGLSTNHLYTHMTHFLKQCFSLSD
Description: as §1, §2
FAPα activity was tested with fluorescence detection using a generic Z-GP-AMC substrate. For FRET assays, the final enzyme concentration was 5 nM and the buffer was 50 mM TRIS HCl, 1 M NaCl, 1 mg/mL BSA, pH 7.5.
To analyze the catalytic efficiency of candidate tandem linker designs, a tailored library approach using MSP-MS was applied. For the tailored library, a set of nineteen synthetic peptides, 30 amino acids in length (30-mers), were designed to test whether sequence context affects the efficiency of cleavage. Peptides were assayed in a multiplex format together as a substrate library with individual recombinant enzymes, using MSP-MS. For quantitative comparisons, kinetic analysis was performed over a time course, and results are reported either as a catalytic efficiency kcat/KM for well-behaved first-order kinetics, or as observed rates as kobs for more complex kinetic behavior.
as §4, §5

[1] = system: conditioned media from tumor, myofibroblast and YAMC cell lines; assay: FRET steady-state kinetics of conditioned media (enzyme equivalents); format: biochemical, mouse; details: for Secreted activity in conditioned media, steady-state kinetics: tumor cell lines
From the text: (§7) Conditioned media and cell lysate samples were received from Charles River Laboratories for the murine colon cancer cell lines: MC38 (epithelial), CT26 (fibroblast), and CT26 transduced with a lentivirus for doxycyclin-inducible expression of MMP9 (CT26 pLVX MMP9-5T4+dox). An immortalized mouse intestinal myofibroblast cell line (ABM Good #T0565) was used as a control stromal cell line, grown under manufacturer recommended conditions. Conditioned media and cell lysate samples were also received for screening purposes from ABM Good for the immortalized mouse colonic epithelial cell line YAMC (ABM Good #T0567).
(§8) In the end-point screening assays, a fixed titer of 10× concentrated sample and a substrate concentration of 10 μM was used. Values reported in the end-point experiments are initial velocity measurements, in relative fluorescence units (RFU) per second. End-point measurements are a starting point for a screen, but the rate of the reaction is non-linearly related to substrate concentration. Therefore, a more accurate representation of activity would be given by steady-state kinetic measurements covering a range of substrate concentrations. To compare activity across cell lines, the data were treated with a Michaelis-Menten model, and the concentration of equivalent enzyme units [E0] was solved.
Accordingly, initial velocity was measured as a function of substrate concentration, using a 2-fold dilution series from 250 to 1 μM. Data were fitted using non-linear least squares fitting with GraphPad Prism software v 8.0 to the Michaelis-Menten equation:
[formula] where kcat is the rate of product formation under steady-state conditions in units (s^−1), and KM is the Michaelis constant that gives the substrate concentration in molar units (M) at which half maximum velocity of the reaction is produced for a given enzyme, [E0] is the enzyme concentration, and [S] the substrate concentration in (M).
In the assays where purified recombinant enzyme is used, the Michaelis-Menten parameters are as classically defined above. For conditioned media samples, the effective titer of conditioned media per assay was adjusted to approximately a 2× concentrate of the original unprocessed media samples to assure that the detection range matched the signal produced. The enzyme component in the calculation is redefined as a mixture of possible proteases that contribute to the cumulative observed activity, each with intrinsic reactivity toward a substrate. In this case, it is more appropriate to consider kcat and KM as macroscopic constants that represent the overall efficiency of catalysis, and E0 is an enzyme equivalent, expressed in units of concentration. To solve the data fit, kcat/KM can be fixed at that of the recombinant enzyme and enzyme equivalents per cell culture volume can be output. The effective titer of enzyme equivalents in this case can be used to compare the activity produced by the different cell lines.
An immortalized mouse colonic epithelial cell line (YAMC) was used to test activity in the presence of additional control “normal” epithelial cells. YAMC's are given the calculated enzyme equivalents (nM) resulting from all of these steady state experiments, to allow for comparison of the amount of equivalent activity per sample. For example, the YAMC control epithelial cell line produced activity with the ADAM17_2 substrate equivalent to that of 0.52±0.03 nM of ADAM17 recombinant enzyme. This cell line compares directly to MC38, also of epithelial origin, which had activity equivalent to that of 0.32±0.03 nM of ADAM17 recombinant enzyme. […] This cell line required non-standard cell culture conditions, including growth with murine IFNγ, and at low temperature to maintain, and may not be fully representative of epithelial cell lines.

[2] = system: conditioned media from MC38, CT26, CT26 pLVX MMP9-5T4+dox and myofibroblast cell lines; assay: FRET end-point screen of conditioned media; format: biochemical, mouse; details: for Ratio of tumor vs control activity, end-point screen: three tumor cell lines vs myofibroblast cell line, complete (+FBS) media, 10 μM substrate
From the text: Proteolytic activity was screened in the conditioned media samples by fluorescent resonance energy transfer (FRET) assays with the substrates listed in Table 10.
as §7
Conditioned media samples were prepared according to the standard protocol using logarithmic phase cells. Briefly, cells were grown for 16h in either serum-free media or in complete media containing 10% fetal bovine serum (FBS). After conditioned media collection, the adherent cells were washed then lysed on plate with non-denaturing lysis buffer to produce a lysed “cell pellet” to capture any activity that remained associated with the cells. All cell culture-derived conditioned media samples, cell lysates from Charles River Laboratories, and cell lysates derived internally were processed with identical methods, to allow comparison between samples.
The resulting conditioned media was buffer exchanged with PBS and concentrated to 10× the original titer as a stock solution.
FBS background controls were therefore used for baseline subtraction at each concentration of substrate throughout the FRET experiments.
as §8

T2 sequence (P05981 163-417 limits assumed): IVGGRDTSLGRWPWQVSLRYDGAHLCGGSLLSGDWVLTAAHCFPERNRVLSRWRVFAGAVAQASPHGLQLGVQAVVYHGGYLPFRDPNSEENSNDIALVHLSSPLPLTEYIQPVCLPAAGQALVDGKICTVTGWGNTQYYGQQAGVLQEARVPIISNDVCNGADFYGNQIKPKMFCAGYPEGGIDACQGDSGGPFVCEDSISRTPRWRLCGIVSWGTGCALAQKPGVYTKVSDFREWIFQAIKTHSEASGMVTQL
T2 sequence (P05981 1-162 partner limits assumed): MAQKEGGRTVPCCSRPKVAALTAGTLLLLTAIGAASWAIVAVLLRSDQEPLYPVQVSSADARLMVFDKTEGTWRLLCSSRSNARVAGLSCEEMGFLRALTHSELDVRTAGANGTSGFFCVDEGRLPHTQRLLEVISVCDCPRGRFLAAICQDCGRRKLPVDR

GALFKSSFPSGGGPAGLYAQGGSGKGGSGK [Alu30-1]
Relative efficiency of 30-mer peptide cleavage by thrombin (Thrombin): most rapidly cleaved in the library

GGALFKSSFPGPAGLYAQPLAQKLKSSGGK [Alu30-13]
Relative efficiency of 30-mer peptide cleavage by thrombin (Thrombin): cleaved at lower efficiency

GGGALFKSSFPLAQKLKSSPGGPAGIGGGR [Alu30-8]
Apparent catalytic efficiency, hepsin (Hepsin): ~10^5 M^−1s^−1
Relative efficiency of 30-mer peptide degradation by FAPα (FAPα): not cleaved

GGPLAQKLKSSALFKSSFPGPAGLYAQGGR [Alu30-12]
Apparent catalytic efficiency, hepsin (Hepsin): ~10^5 M^−1s^−1
Relative efficiency of 30-mer peptide cleavage by thrombin (Thrombin): cleaved at lower efficiency

GPAGLYAQ (also: Mca fluorophore and Dnp quencher, places not given here) [MMP14_1, FRET substrate with Mca fluorophore and Dnp quencher]
Secreted activity in myofibroblast conditioned media, steady-state kinetics [1]: not in the myofibroblast cell line
Secreted activity in conditioned media, steady-state kinetics [1]: significant measurable activity
Substrate cleavage activity in the end-point screen ([2]; conditioned media): high activity
Substrate cleavage activity, control myofibroblast cell line ([2]; end-point screen, conditioned media): lowest activity
Ratio of tumor vs control activity, end-point screen [2]: approximately 57 fold
Cleavage of motif by FAPα (FAPα; at PGGP|AGIG and GP|AGLYAQ respectively): able to cleave

GPAGMKGL (also: Mca fluorophore and Dnp quencher, places not given here) [MMP9_1, FRET substrate with Mca fluorophore and Dnp quencher]
Secreted activity in conditioned media, steady-state kinetics [1]: Secreted activity was measured
Substrate cleavage activity in the end-point screen ([2]; conditioned media): high activity
Ratio of tumor vs control activity, end-point screen [2]: approximately 4 fold

KGGGPAGLYAQGPAGLYAQGPAGLYAQGSR [Alu30-3]
Relative efficiency of 30-mer peptide cleavage by thrombin (Thrombin): most rapidly cleaved in the library
Relative efficiency of 30-mer peptide degradation by FAPα (FAPα): highest cleavage activity

KSGPGGPAGIGALFFSSPPLAQKLKSSGGR [Alu30-18]
Relative efficiency of 30-mer peptide cleavage by thrombin (Thrombin): lower cleavage activity

LAQKLKSS (also: Mca fluorophore and Dnp quencher, places not given here) [ADAM17_2, FRET substrate with Mca fluorophore and Dnp quencher]
Calculated enzyme equivalents (ADAM17 recombinant enzyme) ([1]; MC38): 0.32 ± 0.03 nM
Calculated enzyme equivalents (ADAM17 recombinant enzyme) ([1]; YAMC control epithelial cell line): 0.52 ± 0.03 nM
Secreted activity in myofibroblast conditioned media, steady-state kinetics [1]: essentially undetectable
Ratio of tumor vs control activity, end-point screen [2]: approximately 3 fold

LAQRLRSS (also: Mca fluorophore and Dnp quencher, places not given here) [ADAM17_1, FRET substrate with Mca fluorophore and Dnp quencher]
Relative efficiency of cleavage by hepsin (Hepsin): less efficiently cleaved than ADAM17_ 2

RGGALFKSSFPLAQKLKSSGPAGLYAQGGK [Alu30-14]
Apparent catalytic efficiency, hepsin (Hepsin): ~10^5 M^−1s^−1

RGGPAGLYAQGGPAGLYAQGGGPAGLYAQK [Alu30-4]
Relative efficiency of 30-mer peptide cleavage by thrombin (Thrombin): efficient substrate
Relative efficiency of 30-mer peptide degradation by FAPα (FAPα): highest cleavage activity

RGPGGPAGIGPLAQKLKSSALFKSSFPGGG [Alu30-9]
Apparent catalytic efficiency, hepsin (Hepsin): ~10^5 M^−1s^−1

RGPLAQKLKSSALFKSSFPGGPAGIGGGGK [Alu30-7]
Relative efficiency of 30-mer peptide degradation by FAPα (FAPα): not cleaved

Source: patent US11739132B2, “Separation moieties and methods of use thereof” (Werewolf Therapeutics, Inc., priority 2019, dated 2023)
